Patent US20260265316A1, “IMMUNOTHERAPEUTIC METHODS, COMPOUNDS, AND COMPOSITIONS FOR TREATING OR PREVENTING CELIAC DISEASE” (DBV Technologies, priority 2023, published 2026)
Residue numbers refer to the chain shown, from its start.

B1: QLQPFPQPELPYPQPELPYPQPELPYPQPQPKKKKPQPEQPEQPFPEQPQKKKKPQQPFPQPEQPFPWQPQKKKKPSGEGSFQPSQENPQ (peptide)
chain: QLQPFPQPELPYPQPELPYPQPELPYPQPQPKKKKPQPEQPEQPFPEQPQKKKKPQQPFPQPEQPFPWQPQKKKKPSGEGSFQPSQENPQ
B2: QLQPFPQPELPYPQPELPYPQPELPYPQPQPGPRRKKPQPEQPEQPFPEQPQGARRKKPQQPFPQPEQPFPWQPQGPKKPSGEGSFQPSQENPQ (peptide)
chain: QLQPFPQPELPYPQPELPYPQPELPYPQPQPGPRRKKPQPEQPEQPFPEQPQGARRKKPQQPFPQPEQPFPWQPQGPKKPSGEGSFQPSQENPQ
B3: QLQPFPQPELPYPQPELPYPQPELPYPQPQPGPRRKKPQPEQPEQPFPEQPQGCRRKKPQQPFPQPEQPFPWQPQGPKKPSGEGSFQPSQENPQ (peptide)
chain: B2 chain with A54C

Columns and labels:
[1] = Method: Freeze-dried aliquots of the three gliadin polypeptide constructs Cv6, Av6, and 4K, as well as the four building blocks BB1, BB2a, BB3a, and BB4a were reconstituted in pure water, loaded on a PET-Ti backing film and dried in an oven (at ~30° C.). Immediately after drying, dry deposits were reconstituted at five different molarities (approximately 1.8, 0.91, 0.45, 0.091 or 0.045 mM) by pipetting up and down with either pure water (A), PBS 1× (B), or artificial perspiration (C). The concentration in soluble material was measured by HPLC at 215 nm from the solutions recovered from PET-Ti backing films. Data are median+interquartile range of the different molarities tested. Data are expressed as the percentage of soluble material recovered, based on the expected concentration (all values above 100% were set to 100).
Immediately after drying, dry deposits were reconstituted at five different concentrations (20, 10, 5, 1 and 0.5 mg/mL) by pipetting up and down with either pure water (A), PBS 1× (B), or artificial perspiration (C). The concentration in soluble material was measured by HPLC at 215 nm from the solutions recovered from PET-Ti backing films. Data are presented as median+interquartile range of the different molarities tested. Data are expressed as the percentage of soluble material recovered, based on the expected concentration (all values above 100% were set to 100). (D) As an illustration, photographs of the reconstitution of dry deposits with pure water are shown and annotated.
Immediately after drying, deposits were reconstituted by pipetting up and down with each of pure water, PBS 1× at pH 7.0, and artificial perspiration at pH 4.5, each at five different molarities (approximately 1.8, 0.91, 0.45, 0.091, and 0.045 mM). The concentration in soluble material was measured by HPLC at 215 nm.
Immediately after drying, patch deposits were reconstituted by pipetting up and down with each of pure water, PBS 1× at pH 7.0, and artificial perspiration at pH 4.5, at five different concentrations (20, 10, 5, 1, and 0.5 mg/mL). The concentration in soluble material was measured by HPLC at 215 nm.

[2] = tested on: circulating gluten-specific CD4+ T cells in whole blood of HLA-DQ2+ CeD patients; assay: Whole blood IL-2 cytokine release assay, HLA-DQ2+ CeD participants; type: cell-based, human; settings: 24 hours; for IL-2 response (in words): HLA-DQ2+ donors, whole blood; for mean IL-2 titer: HLA-DQ2+ participants, 10 μM
Excerpt: FIGS. 10A-10B are graphs depicting the evaluation of the ability of various molarities of three gliadin polypeptides (Cv6, Av6, and 4K), two peptide mixes containing either the four individual building blocks BB1, BB2a, BB3a and BB4a (BB1-4a) or two Nexvax2 peptides (Nex01/02), and six individual building blocks or peptides (BB1, BB2a, BB3a, BB4a, Nex01, and Nex02) to restimulate gluten-specific T cell collected from HLA-DQ2+ CeD patients using a whole blood IL-2 release assay. The whole blood cytokine release assay was performed in six HLA-DQ2+ participants with biopsy-confirmed celiac disease. Whole blood was stimulated with the three gliadin polypeptide constructs Cv6, Av6, and 4K at 10, 2.5, and 0.5 μM final molarities, as indicated. Alternatively, whole blood was stimulated with a mix of peptides containing either the four building blocks BB1, BB2a, BB3a, and BB4a (BB1-4a) or Nex01 and Nex 02 (Nex01/02) at 10, 2.5, and 0.5 μM final molarities. Building blocks (BB1, BB2a, BB3a, and BB4a), Nex01, and Nex02 were also tested as individual peptides, at a single concentration of 10 μM. After 24 hours of incubation, the concentration of IL-2 was quantified from plasma using an MSD IL-2 S-plex ELISA. Data are expressed in femtogram/mL of plasma (A), or as fold change from the negative control (PBS 1×) (B). Symbols represent individual participants (patient ID); bars represent median+interquartile range of individual values.
The overarching objective of this assay was to validate that the polypeptide constructs (Cv6, Av6, and 4K) can be recognized and processed by human APCs, and they can then promote the activation of gluten-specific effector/memory CD4^+ T cells in CeD patients. A Cytokine Release Assay (CRA) was used (previously described in the literature: Anderson et al., Clinical & Experimental Immunology, 2021 June; 204(3): 321-334; and in Hardy et al., Frontiers in Immunology, 2021, Vol. 12, Article 661662, the entire contents of each of which are incorporated by reference herein). This assay quantifies IL-2 produced by circulating gluten-specific CD4^+ T cells present in the blood of CeD patients upon in vitro stimulation with gluten-derived antigens. Due to the extremely high sensitivity of this CRA, no oral exposure to gluten was required prior to blood sampling.
Informed consent was obtained from all subjects prior to blood collection.
Unfractionated blood (225 μL per well of a 96-well plate) was then rapidly restimulated for 24 hours with each of three of the polypeptide constructs provided herein (SEQ ID NO:23 wherein X is C [Cv6, i.e., SEQ ID NO:49], SEQ ID NO:23 wherein X is A [Av6, i.e., SEQ ID NO:50], and SEQ ID NO:46 [4K]) and with each of four individual building blocks (SEQ ID NO:15 wherein Z is E [BB1], SEQ ID NO:16 wherein Z is E [BB2a], SEQ ID NO:20 wherein Z is E [BB3a], and SEQ ID NO:18 wherein Z is E [BB4a]). The concentrations of the polypeptide constructs ranged from 0.5 to 10 micromolar, and the concentration for each individual building block was 10 micromolar. […] These two peptides comprise an N-terminal pyroglutamate and a C-terminal amide. Nex01 and Nex02 were the two gliadin peptides used in the Nexvax2 immunotherapeutic vaccine that was intended to restore immune tolerance to gluten in HLA-DQ2.5+ CeD patients. A positive control consisted of blood cells stimulated with phytohemagglutinin (PHA) (10 μg/mL) which activates all T cells regardless of their antigen specificity (i.e., a polyclonal activator). Negative controls consisted of cells treated with buffer only (PBS 1×).
After incubation for 24 hours at 37° C. and 5% CO2, plasma was separated from whole blood by centrifugation. Plasma was collected from each well and replicates (n=6 replicates per test) pooled. All plasma samples were frozen at −80° C. until analysis. Single plasma aliquots (100 μL) were thawed and analyzed in duplicate using MSD IL-2 S-plex according to the manufacturer's instructions.

[3] = tested on: 3072 1.26 (DQ2.5-glia-α1a specific) T cell clone; assay: IFN-γ ELISpot T cell clone assay; type: cell-based, human; settings: 10 μM, 3072 1.26 clone

| Molecule | median percentage of soluble material recovered from the patch backing film [1] | IL-2 response (in words) [2] | mean IL-2 titer [2] | mean spot forming units (IFN-γ ELISpot) [3] |
| --- | --- | --- | --- | --- |
| H-PQPEQPEQPFPEQPQ-NH2 [BB2a] | above 80% | no or low response | – | – |
| H-PSGEGSFQPSQENPQ-NH2 [BB4a] | above 80% | no or low response | – | – |
| B1 | – | – | 7199 fg/mL | 177 |
| B2 | – | – | 6664 fg/mL | 183 |
| B3 | – | – | 4858 fg/mL | 159 |
